Results on 1 substance are retold here after patent EP4714974A1.

Experiment [1] addresses human GPRC5D (human) (UniProt Q9NZD1). Briefly: flow cytometry on NCI-H929 cells (negative control).
For experiment [2] the target is unchanged. Briefly: flow cytometry on human GPRC5D-CHOK1 cells (negative control). A general note: Flow cytometry measures light scatter and fluorescence of single cells or particles in a stream.
Experiment [3] has the same target. Described as above. The source holds these as a separate data set.
Experiment [4] has as its target cynomolgus monkey GPRC5D (cynomolgus monkey). Briefly: flow cytometry on cynomolgus monkey GPRC5D-CHOK1 cells (negative control).

human GPRC5D (human), sequence (Q9NZD1 whole entry): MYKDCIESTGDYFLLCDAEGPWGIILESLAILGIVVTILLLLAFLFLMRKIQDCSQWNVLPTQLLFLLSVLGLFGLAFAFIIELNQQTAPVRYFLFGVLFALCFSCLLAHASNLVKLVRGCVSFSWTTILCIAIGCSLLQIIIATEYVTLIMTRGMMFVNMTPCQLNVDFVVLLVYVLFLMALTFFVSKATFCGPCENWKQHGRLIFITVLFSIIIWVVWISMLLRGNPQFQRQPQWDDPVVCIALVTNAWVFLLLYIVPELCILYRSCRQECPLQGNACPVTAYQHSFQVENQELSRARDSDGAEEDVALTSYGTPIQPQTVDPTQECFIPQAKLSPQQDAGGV

On to “IgG1 AA (negative control, purchased from Biointron, Cat. No. B109802) (antibody)”, for which the Top mean fluorescence intensity (Top MFI) in experiment [1] is 165 MFI; in experiment [2] it was 1610 MFI; in experiment [3], 51 MFI; in experiment [4] it was 2040 MFI.
